# According to patent publication US20120088276:
# T1: E. coli (strain K12) RecA protein, wild type
# T1 chain: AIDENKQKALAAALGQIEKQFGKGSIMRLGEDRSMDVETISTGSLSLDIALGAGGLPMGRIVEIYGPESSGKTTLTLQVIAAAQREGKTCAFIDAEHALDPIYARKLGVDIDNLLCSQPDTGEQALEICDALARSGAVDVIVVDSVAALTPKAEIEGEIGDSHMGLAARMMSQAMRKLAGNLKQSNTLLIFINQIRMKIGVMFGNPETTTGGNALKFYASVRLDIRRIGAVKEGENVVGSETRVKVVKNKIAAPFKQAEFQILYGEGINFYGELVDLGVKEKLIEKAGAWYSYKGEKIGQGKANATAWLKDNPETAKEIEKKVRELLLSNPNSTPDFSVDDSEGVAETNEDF
# B1: bacteriophage P1 Ref protein (wild type) (protein)
# chain: MKTIEQKIEQCRKWQKAARERAIARQREKLADPVWRESQYQKMRDTLDRRIAKQKERPPASKTRKSAVKIKSRGLKGRTPTAEERRIANALGALPCIACYMHGVISNEVSLHHIAGRTAPGCHKKQLPLCRWHHQHAAPAEVREKYPWLVPVHADGVVGGKKEFTLLNKSEMELLADAYEMANIMH
# Key:
# [1] = target: T1, E. coli (strain K12) RecA protein, wild …
protein,measurement,setting,value
B1,"nuclease activity (degradation of M13mp18 circular ssDNA, agarose gel)",[1],the nuclease activity depended on both Ref and active RecA filaments
same,"targeted cleavage of both strands of duplex DNA at RecA-created D-loops (restriction analysis, agarose gel)",RecA E38K mutant protein,the Ref-induced breaks in the circular double stranded DNA occur where the RecA-bound oligonucleotide invaded the duplex DNA to form a D-loop
